Read-outs that look alike come from different tables or passages of the source. Each block holds one binder with its values, some of them ahead of it.
Legend:
[1] = biological target: recombinant human IL-9 (R&D Systems) (Homo sapiens, UniProt P15248); experiment: BLI
[2] = biological target: recombinant mouse IL-9 (R&D Systems) (mouse, UniProt P15247); experiment: BLI
[3] = biological target: T1, non-glycosylated binary hIL-9:hIL-9Rα complex (human, UniProt P15248 19-144; Q01113-1 40-261); experiment: ITC
T1 sequence (P15248 19-144, chain 1 of 2): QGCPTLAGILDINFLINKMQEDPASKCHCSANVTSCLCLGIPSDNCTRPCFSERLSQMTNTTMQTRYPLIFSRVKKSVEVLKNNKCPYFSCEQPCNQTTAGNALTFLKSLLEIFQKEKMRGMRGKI
T1 sequence (Q01113 40-261, chain 2 of 2): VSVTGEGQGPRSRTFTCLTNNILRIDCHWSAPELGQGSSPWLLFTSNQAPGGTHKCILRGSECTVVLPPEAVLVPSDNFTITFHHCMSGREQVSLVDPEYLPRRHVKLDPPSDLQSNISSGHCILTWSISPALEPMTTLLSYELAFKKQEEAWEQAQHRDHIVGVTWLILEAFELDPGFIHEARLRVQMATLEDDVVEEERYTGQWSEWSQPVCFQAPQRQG

[4] = biological target: T1, non-glycosylated binary hIL-9:hIL-9Rα …; experiment: ITC; remark: listed apart in the source

recombinant human IL-9 (R&D Systems), sequence (P15248 19-144): as the sequence (P15248 19-144, chain 1 of 2) above
recombinant mouse IL-9 (R&D Systems), sequence (P15247 19-144): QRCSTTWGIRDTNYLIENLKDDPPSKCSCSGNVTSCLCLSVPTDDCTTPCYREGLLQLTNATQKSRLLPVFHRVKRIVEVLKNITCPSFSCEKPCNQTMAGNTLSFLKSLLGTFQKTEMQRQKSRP

B1: anti-hIL-9 monoclonal antibody 7D6 (antibody, V domains shown)
VH: QLQLVESGPGLVKPSQTLSLTCTVSGGSITTGYYAWSWIRQPPGKGLEWMGFIARDGSTSYSPSLKSRTSISRDTSKNQFSLQLSSVTPEDTAVYYCARAGEGRSWYPGYYYGMDYWGKGTLVTVSS
VL: QAVVTQEPSLSVSPGGTVTLTCGLSSGSVTSSNYPGWYQQTPGQAPRVLIYNTNSRHSGVPSRYSGFISGNKAALTITGAEPEDEADYYCHLHKGSTGVFGGGTHLTVL
- Kd [1]: 0.0018 µM

B2: anti-hIL-9 monoclonal antibody 6E2 (antibody, V domains shown)
VH: QVQLVESGGGLVQPGGSLRLSCAASGFTFSSSAMGWVRQAPGKGLEWVSTIVNSITTTYYADSVKGRFTISTDNAKNTLYLQIDSLKSEDTAVYYCGSLAGPYYDYWGQGTQVTVSS
VL: ALTQPSTVSVSLGQTARITCQGGSLGSYDAHWYQQKPGQAPVLVIHDNNSRPSGIPERFTGSRSGETATLTISGAQTEDEADYYCQSYDSTSDALVFGGGTQLTVL
- Kd [1]: 0.00024 µM

Other lines, results leading:

- binding result [2]: binds
B3: anti-mIL-9 monoclonal antibody 35D8 (antibody, V domains shown)
VH: QVQLVESGPGLVQPSQTLSLTCTVSGGSITTSYYDWSWIRQPPGKGLEWMGAIAYSGNAYYSPSLKSRTSISRDTSKNQFTLQLSSVTPEDTAVYYCAREDHYSDTHGWNDYWGQGTQVTVSS
VL: ALTQPSAVSVSLGQTARITCQGGSIGNFGATWYQQKPGQAPVLLSLGEHSRPSGIPERFSGSKSGGTATLTISGAQAEDEADYYCQSFDYIGNDHVFGGGTHLTVL

- Kd [3]: 2.5 µM
- Kd [4]: 9 µM
B4: trimmed extracellular domain of human common gamma chain (hγc, residues 56-254), produced in Sf9 cells (receptor, UniProt P31785-1 56-254, looked up)
chain: PLPEVQCFVFNVEYMNCTWNSSSEPQPTNLTLHYWYKNSDNDKVQKCSHYLFSEEITSGCQLQKKEIHLYQTFVVQLQDPREPRRQATQMLKLQNLVIPWAPENLTLHKLSESQLELNWNNRFLNHCLEHLVQYRTDWDHSWTEQSVDYRHKFSLPSVDGQKRYTFRVRSRFNPLCGSAQHWSEWSHPIHWGSNTSKEN

Reference: publication doi:10.1101/2022.12.30.522308 (bioRxiv, 2022)
